Test results published in paper PMC6168597, “Mutations at the hydrophobic core affect Hal3 trimer stability, reducing its Ppz1 inhibitory capacity but not its PPCDC moonlighting function” (Scientific Reports, 2018).

Target: the molecule itself
Test: cross-linking; purified GST-free proteins (1 or 2 ug) treated with 0.01% glutaraldehyde, SDS-PAGE, Coomassie staining
Settings: not given

Binder	stoichiometry N
S. cerevisiae Hal3 (ScHal3), native, recombinant, GST removed (natural protein, UniProt P36024 1-562, looked up, the methods speak of 'each full-length recombinant protein' and the predicted homotrimer is ~190 kDa; also called native ScHal3; WT; source: E. coli BL21 (DE3) RIL, GST fusion purified on glutathione-agarose, GST cleaved with PreScission protease) MTAVASTSGKQDADHNQSIECPRFSRGQKEILLDHEDAKGKDSIINSPVSGRQSISPTLSNATTTTTKSIMNATGTSGAVVSNTPEPGLKRVPAVTFSDLKQQQKQDSLTQLKNDSERTKSPNSNPAPVSNSIPGNHAVIPNHTNTSRTTQLSGSPLVNEMKDYDPKKKDSALKIVDTMKPDKIMATSTPISRENNKVTAKAPTSITLRKEDAQDQANNVSGQINVRSTPEETPVKQSVIPSIIPKRENSKNLDPRLPQDDGKLHVLFGATGSLSVFKIKPMIKKLEEIYGRDRISIQVILTQSATQFFEQRYTKKIIKSSEKLNKMSQYESTPATPVTPTPGQCNMAQVVELPPHIQLWTDQDEWDAWKQRTDPVLHIELRRWADILVVAPLTANTLSKIALGLCDNLLTSVIRAWNPSYPILLAPSMVSSTFNSMMTKKQLQTIKEEMSWVTVFKPSEKVMDINGDIGLGGMMDWNEIVNKIVMKLGGYPKNNEEEDDDEDEEEDDDEEEDTEDKNENNNDDDDDDDDDDDDDDDDDDDDDDDDEDEDEAETPGIIDKHQ	3
ScHal3 L403N, recombinant, GST removed (natural protein, S. cerevisiae, UniProt P36024 1-562, looked up, Hal3 (Sis2), S. cerevisiae, in pGEX-6P-1 with L403N; also called the L403 variant; source: E. coli BL21 (DE3) RIL, GST fusion purified on glutathione-agarose, GST cleaved with PreScission protease) MTAVASTSGKQDADHNQSIECPRFSRGQKEILLDHEDAKGKDSIINSPVSGRQSISPTLSNATTTTTKSIMNATGTSGAVVSNTPEPGLKRVPAVTFSDLKQQQKQDSLTQLKNDSERTKSPNSNPAPVSNSIPGNHAVIPNHTNTSRTTQLSGSPLVNEMKDYDPKKKDSALKIVDTMKPDKIMATSTPISRENNKVTAKAPTSITLRKEDAQDQANNVSGQINVRSTPEETPVKQSVIPSIIPKRENSKNLDPRLPQDDGKLHVLFGATGSLSVFKIKPMIKKLEEIYGRDRISIQVILTQSATQFFEQRYTKKIIKSSEKLNKMSQYESTPATPVTPTPGQCNMAQVVELPPHIQLWTDQDEWDAWKQRTDPVLHIELRRWADILVVAPLTANTLSKIANGLCDNLLTSVIRAWNPSYPILLAPSMVSSTFNSMMTKKQLQTIKEEMSWVTVFKPSEKVMDINGDIGLGGMMDWNEIVNKIVMKLGGYPKNNEEEDDDEDEEEDDDEEEDTEDKNENNNDDDDDDDDDDDDDDDDDDDDDDDDEDEDEAETPGIIDKHQ	3
Arabidopsis thaliana Hal3 (AtHal3a), native, recombinant, GST removed (enzyme, UniProt Q9SWE5 1-209, looked up, AtHal3a, Arabidopsis thaliana, wild type ORF amplified from the AtHal3a cDNA and cloned into pGEX-6P-1; Flavoprotein (FMN); Theoretical mass of the trimer ~69 kDa; also called native AtHal3; source: E. coli BL21 (DE3) RIL, GST fusion purified on glutathione-agarose, GST cleaved with PreScission protease) MENGKRDRQDMEVNTTPRKPRVLLAASGSVAAIKFGNLCHCFTEWAEVRAVVTKSSLHFLDKLSLPQEVTLYTDEDEWSSWNKIGDPVLHIELRRWADVLVIAPLSANTLGKIAGGLCDNLLTCIIRAWDYTKPLFVAPAMNTLMWNNPFTERHLLSLDELGITLIPPIKKRLACGDYGNGAMAEPSLIYSTVRLFWESQAHQQTGGTS	3
AtHal3 G115N L117E, recombinant, GST removed (enzyme, Arabidopsis thaliana, UniProt Q9SWE5 1-209, looked up, AtHal3a, Arabidopsis thaliana, ORF in pGEX-6P-1 with G115N and L117E; source: E. coli BL21 (DE3) RIL, GST fusion purified on glutathione-agarose, GST cleaved with PreScission protease) MENGKRDRQDMEVNTTPRKPRVLLAASGSVAAIKFGNLCHCFTEWAEVRAVVTKSSLHFLDKLSLPQEVTLYTDEDEWSSWNKIGDPVLHIELRRWADVLVIAPLSANTLGKIANGECDNLLTCIIRAWDYTKPLFVAPAMNTLMWNNPFTERHLLSLDELGITLIPPIKKRLACGDYGNGAMAEPSLIYSTVRLFWESQAHQQTGGTS	3
AtHal3 L117E, recombinant, GST removed (enzyme, Arabidopsis thaliana, UniProt Q9SWE5 1-209, looked up, AtHal3a, Arabidopsis thaliana, ORF in pGEX-6P-1 with L117E; source: E. coli BL21 (DE3) RIL, GST fusion purified on glutathione-agarose, GST cleaved with PreScission protease) MENGKRDRQDMEVNTTPRKPRVLLAASGSVAAIKFGNLCHCFTEWAEVRAVVTKSSLHFLDKLSLPQEVTLYTDEDEWSSWNKIGDPVLHIELRRWADVLVIAPLSANTLGKIAGGECDNLLTCIIRAWDYTKPLFVAPAMNTLMWNNPFTERHLLSLDELGITLIPPIKKRLACGDYGNGAMAEPSLIYSTVRLFWESQAHQQTGGTS	3

Target: T1, GST-fused full length Ppz1 (S. cerevisiae, UniProt P26570 1-692)
T1 construct: Ser/Thr protein phosphatase Ppz1, S. cerevisiae, full length; also called GST-Ppz1; source: E. coli BL21 (DE3) RIL, purified on glutathione-agarose
T1 sequence (looked up): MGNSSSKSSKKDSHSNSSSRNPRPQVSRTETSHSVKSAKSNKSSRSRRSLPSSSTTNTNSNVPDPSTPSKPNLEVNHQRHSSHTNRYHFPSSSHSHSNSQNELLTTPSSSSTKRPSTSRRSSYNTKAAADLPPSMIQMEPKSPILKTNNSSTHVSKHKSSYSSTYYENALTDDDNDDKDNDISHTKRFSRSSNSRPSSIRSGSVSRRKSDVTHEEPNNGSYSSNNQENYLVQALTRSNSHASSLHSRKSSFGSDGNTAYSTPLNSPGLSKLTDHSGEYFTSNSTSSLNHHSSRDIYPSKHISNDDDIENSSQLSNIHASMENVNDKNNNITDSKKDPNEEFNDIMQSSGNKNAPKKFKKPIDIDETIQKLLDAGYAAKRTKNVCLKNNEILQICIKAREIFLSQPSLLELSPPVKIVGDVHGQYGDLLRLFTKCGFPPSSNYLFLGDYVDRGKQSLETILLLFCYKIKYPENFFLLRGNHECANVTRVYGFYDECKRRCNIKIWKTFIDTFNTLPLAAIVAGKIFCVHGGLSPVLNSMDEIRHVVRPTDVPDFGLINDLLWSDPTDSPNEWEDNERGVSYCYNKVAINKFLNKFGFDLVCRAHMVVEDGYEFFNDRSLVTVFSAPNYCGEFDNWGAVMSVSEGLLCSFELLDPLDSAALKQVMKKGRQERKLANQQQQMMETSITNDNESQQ
Test: pull-down; 4 ug GST-Ppz1 or GST-Ppz1-Cter on glutathione-agarose beads, 600 ug protein extract of IM021 yeast expressing HA-tagged ScHal3 versions, anti-HA immunoblot; signal related to Ponceau-stained bait, native ScHal3 as the unit
Settings: one partner purified

Binder	interaction relative to native ScHal3 [%]
HA-tagged ScHal3 L403N L405E expressed in S. cerevisiae from pWS93 (natural protein, UniProt P36024 1-562, looked up, Hal3 (Sis2), S. cerevisiae, with L403N and L405E; insert released from the pGEX construct and cloned into pWS93; also called the double mutated variant; source: S. cerevisiae IM021 (ppz1 hal3), expressed from pWS93, in protein extract) MTAVASTSGKQDADHNQSIECPRFSRGQKEILLDHEDAKGKDSIINSPVSGRQSISPTLSNATTTTTKSIMNATGTSGAVVSNTPEPGLKRVPAVTFSDLKQQQKQDSLTQLKNDSERTKSPNSNPAPVSNSIPGNHAVIPNHTNTSRTTQLSGSPLVNEMKDYDPKKKDSALKIVDTMKPDKIMATSTPISRENNKVTAKAPTSITLRKEDAQDQANNVSGQINVRSTPEETPVKQSVIPSIIPKRENSKNLDPRLPQDDGKLHVLFGATGSLSVFKIKPMIKKLEEIYGRDRISIQVILTQSATQFFEQRYTKKIIKSSEKLNKMSQYESTPATPVTPTPGQCNMAQVVELPPHIQLWTDQDEWDAWKQRTDPVLHIELRRWADILVVAPLTANTLSKIANGECDNLLTSVIRAWNPSYPILLAPSMVSSTFNSMMTKKQLQTIKEEMSWVTVFKPSEKVMDINGDIGLGGMMDWNEIVNKIVMKLGGYPKNNEEEDDDEDEEEDDDEEEDTEDKNENNNDDDDDDDDDDDDDDDDDDDDDDDDEDEDEAETPGIIDKHQ	~50
HA-tagged ScHal3 L405E expressed in S. cerevisiae from pWS93 (natural protein, UniProt P36024 1-562, looked up, Hal3 (Sis2), S. cerevisiae, with L405E; insert released from the pGEX construct and cloned into pWS93; source: S. cerevisiae IM021 (ppz1 hal3), expressed from pWS93, in protein extract) MTAVASTSGKQDADHNQSIECPRFSRGQKEILLDHEDAKGKDSIINSPVSGRQSISPTLSNATTTTTKSIMNATGTSGAVVSNTPEPGLKRVPAVTFSDLKQQQKQDSLTQLKNDSERTKSPNSNPAPVSNSIPGNHAVIPNHTNTSRTTQLSGSPLVNEMKDYDPKKKDSALKIVDTMKPDKIMATSTPISRENNKVTAKAPTSITLRKEDAQDQANNVSGQINVRSTPEETPVKQSVIPSIIPKRENSKNLDPRLPQDDGKLHVLFGATGSLSVFKIKPMIKKLEEIYGRDRISIQVILTQSATQFFEQRYTKKIIKSSEKLNKMSQYESTPATPVTPTPGQCNMAQVVELPPHIQLWTDQDEWDAWKQRTDPVLHIELRRWADILVVAPLTANTLSKIALGECDNLLTSVIRAWNPSYPILLAPSMVSSTFNSMMTKKQLQTIKEEMSWVTVFKPSEKVMDINGDIGLGGMMDWNEIVNKIVMKLGGYPKNNEEEDDDEDEEEDDDEEEDTEDKNENNNDDDDDDDDDDDDDDDDDDDDDDDDEDEDEAETPGIIDKHQ	~50
